The source of these data is patent US20150284436A1 (published 2015).

The chains are these.
B1: N-TXNIP (N-terminal domain of TXNIP, residues 3-156) (other)
chain: MFKKIKSFEVVFNDPEKVYGSGERVAGRVIVEVCEVTRVKAVRILACGVAKVLWMQGSQQCKQTSEYLRYEDTLLLEDQPTGENEMVIMRPGNKYEYKFGFELPQGPLGTSFKGKYGCVDYWVKAFLDRPSQPTQETKKNFEVVDLVDVNTPDL
notes: The NMR sample was 15N-labeled and its hexahistidine-tag was removed by rTEV; In the Ni-NTA co-purification it carried the N-terminal hexahistidine-tag; also called N-terminal TXNIP; ^15N-labeled N-TXNIP
B9: human TRX (thioredoxin), wild-type, tag-free (enzyme)
chain: MVKQIESKTAFQEALDAAGDKLVVVDFSATWCGPCKMIKPFFHSLSEKYSNVIFLEVDVDDCQDVASECEVKCMPTFQFFKKGQKVGEFSGANKEKLEATINELV
notes: Expressed tag-free under the T7 promoter together with TXNIP constructs in E. coli; also called native TRX; endogenous TRX

For assay [1], the target named is T1, TRX, wild-type, with C-terminal hexahistidine-tag (NMR sample) (human, UniProt P10599 1-105).
T1 construct: also called unlabeled, reduced TRX; wild-type TRX; not shown: C-terminal hexahistidine-tag from pET21 vector
T1 sequence: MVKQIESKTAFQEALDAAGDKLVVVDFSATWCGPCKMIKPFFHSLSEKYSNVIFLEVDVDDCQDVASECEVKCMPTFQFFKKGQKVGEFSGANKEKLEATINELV
The assay is described as follows: 1H-15N HSQC NMR titration of 15N-labeled N-TXNIP. The protocol: (§1) NMR interaction experiments were carried out by recording ¹H-¹⁵N NMR HSQC spectra of ¹⁵N-labeled N-TXNIP upon addition of unlabeled TRX or its mutant, which was reduced with 5 mM DTT and dialyzed against 50 mM potassium phosphate (pH 6.6) prior to the interaction study to remove excess DTT.
(§2) The ¹H-¹⁵N HSQC spectra of all proteins were measured on a Bruker 900 MHz NMR spectrometer at the Korea Basic Science Institute (Ochang, Korea). The NMR measurements were performed using 0.3 mM ¹⁵N-labeled protein in 50 mM potassium phosphate (pH 6.6) containing 10% D₂O at 25° C. All NMR spectra were processed with Topspin 2.1 and analyzed with the program SPARKY 3.1.
To evaluate the involvement of N-TXNIP in the interaction of TXNIP with TRX, an NMR-titration experiment was performed by recording a series of ¹H-¹⁵N heteronuclear single quantum coherence (HSQC) spectra of ¹⁵N-labeled N-TXNIP after addition of unlabeled, reduced TRX.

For assay [2], the target named is T1, TRX, wild-type, with C-terminal …. Nature of the assay: 1H-15N HSQC NMR. The protocol:
as §1, §2
(§3) Further, TRX muteins were added and ¹H-¹⁵N HSQC spectra of ¹⁵N-labeled N-TXNIP were monitored to examine interaction between N-TXNIP and TRX. […] In contrast, C62A, C69A, and C73A mutants caused a chemical shift similar to the wild-type TRX (FIG. 12).

Assay [3] addresses B1. Nature of the assay: 1H-15N HSQC NMR of 15N-labeled N-TXNIP. The protocol: as §1, §2, §3
Assay [4] has as its target T2, TRX(C35A), tag-free (human, UniProt P10599 1-105).
T2 construct: Human TRX with alanine for cysteine at position 35; Co-expressed tag-free with T-TXNIP mutants or N-TXNIP; also called modified TRX protein
T2 chain: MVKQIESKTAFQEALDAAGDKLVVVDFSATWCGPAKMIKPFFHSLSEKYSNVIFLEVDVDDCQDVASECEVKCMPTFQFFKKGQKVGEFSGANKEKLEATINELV
The assay is described as follows: co-crystal structure, X-ray, 2.7 Å.

The target in assay [5] is T3, HA-tagged TXNIP (human, UniProt Q9H3M7 1-391).
T3 construct: Expressed in HEK 293T cells
T3 sequence: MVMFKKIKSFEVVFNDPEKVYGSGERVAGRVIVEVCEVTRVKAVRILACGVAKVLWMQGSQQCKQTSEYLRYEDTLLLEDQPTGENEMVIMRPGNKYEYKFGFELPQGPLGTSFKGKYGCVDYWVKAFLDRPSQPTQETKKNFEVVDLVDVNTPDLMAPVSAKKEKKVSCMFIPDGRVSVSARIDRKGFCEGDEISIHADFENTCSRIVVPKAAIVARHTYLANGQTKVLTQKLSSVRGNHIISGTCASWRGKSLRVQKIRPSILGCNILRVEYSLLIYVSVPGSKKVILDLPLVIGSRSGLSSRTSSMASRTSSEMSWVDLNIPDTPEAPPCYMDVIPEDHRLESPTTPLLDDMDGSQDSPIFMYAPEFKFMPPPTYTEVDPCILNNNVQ
Nature of the assay: anti-FLAG agarose immunoprecipitation from HEK 293T lysates (50 mM iodoacetamide), Western blot. The procedure:
To test the in vivo interprotomer interaction between TXNIP molecules, HEK 293T cells were transfected with plasmids expressing HA-tagged-TXNIP and FLAG-tagged T-TXNIP. 24 hours later, the cells were harvested and lysed in the 50 mM iodoacetamide-containing buffer [0.5% Triton X-100, 150 mM NaCl, 10% glycerol, 1 mM NaF, 1 mM AEBSF, 2 μg/mL leupeptin, 5 μg/mL aprotinin and 20 mM HEPES (pH 7.2)]. After centrifugation at 16,000 rpm for 20 minutes, the supernatant was incubated with anti-FLAG M2 agarose (Sigma) at 4° C. for 12 hours. The immobilized proteins were collected by centrifugation and washed three times with the lysis buffer. The bound proteins were subjected to SDS-PAGE under reduced and non-reduced conditions. […] 24 hours later, the cells were harvested and lysed in the lysis buffer. After centrifugation at 16,000 g for 20 minutes, the supernatants were incubated at 4° C. for 12 hours with monoclonal anti-FLAG M2 agarose beads (Sigma) for immunoprecipitation, or with glutathione-conjugated sepharose beads (GE Healthcare) for pull-down assay. The immobilized proteins were collected by centrifugation and washed three times with lysis buffer. Bound proteins or WCLs were eluted by boiling in SDS sample buffer. […]

Assay [6] concerns the target T4, T-TXNIP (TXNIP residues 3-317) (human, UniProt Q9H3M7 3-317).
T4 construct: In E. coli it was expressed with an N-terminal hexahistidine-tag that was removed by rTEV protease; also called native T-TXNIP; T-TXNIP(3-317)
T4 sequence: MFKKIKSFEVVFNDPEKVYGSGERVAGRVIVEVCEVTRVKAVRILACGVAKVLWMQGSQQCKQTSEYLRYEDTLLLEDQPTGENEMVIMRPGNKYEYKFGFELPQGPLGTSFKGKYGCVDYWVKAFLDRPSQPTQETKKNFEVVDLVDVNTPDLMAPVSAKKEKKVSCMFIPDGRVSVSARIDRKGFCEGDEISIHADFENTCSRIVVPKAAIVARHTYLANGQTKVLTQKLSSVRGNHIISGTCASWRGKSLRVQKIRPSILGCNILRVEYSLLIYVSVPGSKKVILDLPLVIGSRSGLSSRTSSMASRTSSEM
The assay is described as follows: GST pull-down from transfected HEK 293T lysates, immunoblot. For orientation: Immunoblotting shows a protein as a band on a membrane.

The target in assay [7] is B9. The description is as above.
Assay [8] addresses T2, TRX(C35A), tag-free. Nature of the assay: size-exclusion chromatography. The procedure:
A Superdex™ 200 10/300 GL gel filtration column (GE Healthcare) installed on an Acta purifier FPLC system (GE Healthcare) was equilibrated with 50 mM Tris-HCl (pH 8.0), 500 mM NaCl, and 10% glycerol at a flow rate of 0.4 ml/min at room temperature. Purified TRX-T-TXNIP and its mutants were injected onto the column. Ovalbumin was used as a molecular weight standard.
The structures of COM1 and COM2 are essentially identical, each contains two heterodimeric complexes of TRX and T-TXNIP in an asymmetric unit, with a large interface between the two T-TXNIP molecules (FIGS. 5A and B). […] Thus, the interfaces between the T-TXNIP molecules in the crystal structures merely constitute large crystal contacts.
A general note: Size exclusion chromatography separates by hydrodynamic size, large species first.

On to B1, for which, in assay [1], the binding result is given as “binds”.

B2: N-TXNIP C120S mutant (^15N-labeled) (other)
chain: MFKKIKSFEVVFNDPEKVYGSGERVAGRVIVEVCEVTRVKAVRILACGVAKVLWMQGSQQCKQTSEYLRYEDTLLLEDQPTGENEMVIMRPGNKYEYKFGFELPQGPLGTSFKGKYGSVDYWVKAFLDRPSQPTQETKKNFEVVDLVDVNTPDL
With B2, in assay [2], the binding result is recorded as “no binding”.

B3: TRX C69A mutant (NMR sample) (enzyme)
chain: MVKQIESKTAFQEALDAAGDKLVVVDFSATWCGPCKMIKPFFHSLSEKYSNVIFLEVDVDDCQDVASEAEVKCMPTFQFFKKGQKVGEFSGANKEKLEATINELV
notes: not shown: C-terminal hexahistidine-tag from pET21 vector
In the case of B3, the binding result in assay [3] is “binds”.

B4: TRX C73A mutant (NMR sample) (enzyme)
chain: MVKQIESKTAFQEALDAAGDKLVVVDFSATWCGPCKMIKPFFHSLSEKYSNVIFLEVDVDDCQDVASECEVKAMPTFQFFKKGQKVGEFSGANKEKLEATINELV
notes: as for B3
B4: in assay [3], the binding result is reported as “binds”.

B5: TRX C62A mutant (NMR sample) (enzyme)
chain: MVKQIESKTAFQEALDAAGDKLVVVDFSATWCGPCKMIKPFFHSLSEKYSNVIFLEVDVDDAQDVASECEVKCMPTFQFFKKGQKVGEFSGANKEKLEATINELV
notes: as for B3
For B5, in assay [3], the binding result is recorded as “binds”.

B6: N-TXNIP C63S mutant (^15N-labeled) (other)
chain: MFKKIKSFEVVFNDPEKVYGSGERVAGRVIVEVCEVTRVKAVRILACGVAKVLWMQGSQQSKQTSEYLRYEDTLLLEDQPTGENEMVIMRPGNKYEYKFGFELPQGPLGTSFKGKYGCVDYWVKAFLDRPSQPTQETKKNFEVVDLVDVNTPDL
As for B6, in assay [2], the binding result was “no binding”.

B7: T-TXNIP(C170S/C205S/C267S) (other)
chain: MFKKIKSFEVVFNDPEKVYGSGERVAGRVIVEVCEVTRVKAVRILACGVAKVLWMQGSQQCKQTSEYLRYEDTLLLEDQPTGENEMVIMRPGNKYEYKFGFELPQGPLGTSFKGKYGCVDYWVKAFLDRPSQPTQETKKNFEVVDLVDVNTPDLMAPVSAKKEKKVSSMFIPDGRVSVSARIDRKGFCEGDEISIHADFENTSSRIVVPKAAIVARHTYLANGQTKVLTQKLSSVRGNHIISGTCASWRGKSLRVQKIRPSILGSNILRVEYSLLIYVSVPGSKKVILDLPLVIGSRSGLSSRTSSMASRTSSEM
notes: 1; The N-terminal hexahistidine-tag was removed by rTEV protease; also called modified TXNIP protein of COM2
In the case of B7, in assay [4], the binding result is “binds”.

B8: FLAG-tagged T-TXNIP (other)
chain: MFKKIKSFEVVFNDPEKVYGSGERVAGRVIVEVCEVTRVKAVRILACGVAKVLWMQGSQQCKQTSEYLRYEDTLLLEDQPTGENEMVIMRPGNKYEYKFGFELPQGPLGTSFKGKYGCVDYWVKAFLDRPSQPTQETKKNFEVVDLVDVNTPDLMAPVSAKKEKKVSCMFIPDGRVSVSARIDRKGFCEGDEISIHADFENTCSRIVVPKAAIVARHTYLANGQTKVLTQKLSSVRGNHIISGTCASWRGKSLRVQKIRPSILGCNILRVEYSLLIYVSVPGSKKVILDLPLVIGSRSGLSSRTSSMASRTSSEM
notes: Expressed in HEK 293T cells
Consider B8, for which the binding result in assay [5] is “binds”.

With B9, the binding result in assay [6] was “binds”.

B10: T-TXNIP(C120S/C170S/C205S/C267S) (other)
chain: MFKKIKSFEVVFNDPEKVYGSGERVAGRVIVEVCEVTRVKAVRILACGVAKVLWMQGSQQCKQTSEYLRYEDTLLLEDQPTGENEMVIMRPGNKYEYKFGFELPQGPLGTSFKGKYGSVDYWVKAFLDRPSQPTQETKKNFEVVDLVDVNTPDLMAPVSAKKEKKVSSMFIPDGRVSVSARIDRKGFCEGDEISIHADFENTSSRIVVPKAAIVARHTYLANGQTKVLTQKLSSVRGNHIISGTCASWRGKSLRVQKIRPSILGSNILRVEYSLLIYVSVPGSKKVILDLPLVIGSRSGLSSRTSSMASRTSSEM
notes: 1; The N-terminal hexahistidine-tag was removed by rTEV protease; also called T-TXNIP(C120,170,205,267S); modified TXNIP protein of COM1
B10: the binding result in assay [7] and in assay [8] was “binds” throughout.
